Reference: PMC8568338 (Cell reports, 2021)

Molecular target: the molecule itself
Experiment: native gel or EMSA

B1: Strep-tagged VP40[change] (VP40 truncated after residue 194) (domain or fragment)
chain: MRRVILPTAPPEYMEAIYPVRSNSTIARGGNSNTGFLTPESVNGDTPSNPLRPIADDTIDHASHTPGSVSSAFILEAMVNVISGPKVLMKQIPIWLPLGVADQKTYSFDSTTAAIMLASYTITHFGKATNPLVRVNRLGPGIPDHPLRLLRIGNQAFLQEFVLPPVQLPQYFTFDLTALKLITQPLPAATWTDD
stoichiometry N: 8
